Our source for the Ki, EC50 (cAMP) and intrinsic activity (cAMP; NDP-α-MSH = 100%) values is patent US20120178701A1.

Bridge positions count the residues as written; N and C are the ends. Square brackets hold non-standard residues; d marks the D form. Primed or numbered codes have the meaning given here. * marks the point of attachment. Dap(betaPro) = diaminopropionic acid with a beta-prolyl group on the side-chain amine; Cyclopentylacetyl′ = not defined here; Cyclohexylacetyl = O=C(CC1CCCCC1)*; Orn = NCCC[C@H](N)C(=O)O; Dab = NCC[C@H](N)C(=O)O; Sar = CNCC(=O)O

Assay [1] deals with human recombinant melanocortin-4 receptor (human) (UniProt P32245). The experiment in a line: competitive inhibition of [I125]-NDP-α-MSH, hMC4-R HEK-293 membranes.
Sequence of human recombinant melanocortin-4 receptor (human) (P32245 whole entry): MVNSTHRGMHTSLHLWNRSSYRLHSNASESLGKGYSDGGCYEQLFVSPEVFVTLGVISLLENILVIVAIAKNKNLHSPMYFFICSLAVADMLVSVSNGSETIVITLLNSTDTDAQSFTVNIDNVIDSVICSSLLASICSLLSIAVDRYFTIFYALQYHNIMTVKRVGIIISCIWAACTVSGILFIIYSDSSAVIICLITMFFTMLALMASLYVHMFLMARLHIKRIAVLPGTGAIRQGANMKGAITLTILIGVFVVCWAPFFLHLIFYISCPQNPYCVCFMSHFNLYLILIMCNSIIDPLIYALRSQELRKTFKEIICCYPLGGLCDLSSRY
For assay [2], the target named is T1, human recombinant melanocortin-4 receptor (human), P32245. Kind of assay: competitive inhibition of Eu-NDP-α-MSH (TRF), hMC4-R HEK-293 membranes. Particulars: remark: other sources report otherwise.
T1 sequence (P32245 whole entry): as above
The target in assay [3] is T1, human recombinant melanocortin-4 …. The experiment in a line: competitive inhibition of [I125]-NDP-α-MSH, hMC4-R HEK-293 membranes. Particulars: remark: other sources report otherwise.
Assay [4] concerns the target human recombinant melanocortin-4 receptor (human) (UniProt P32245). Kind of assay: cell-based or functional assay.
The target is the same in assay [5]. The experiment in a line: competitive inhibition of Eu-NDP-α-MSH (TRF), hMC4-R HEK-293 membranes.

B1: Ac-Arg-cyclo(hGlu-Dab-D-Phe-Arg-Trp-Dab)-OH (peptide)
peptide: RXXFRWX
modifications: N-acetyl; X2 = hGlu; X3 = Dab; D-Phe 4; X7 = Dab; side-chain lactam hGlu2-Dab7; C-terminal free acid (-OH)
Consider B1, for which, in assay [1], the Ki (usually a dissociation constant, usually derived from enzyme kinetics or from competition with a known ligand) was determined as 45 nM.

B2: Ac-Arg-cyclo(Asp-Dab(Glycly)-D-Phe-Arg-Trp-Lys)-NH2 (peptide)
peptide: Ac-RD[Dab](Gly)[dF]RWK-NH2
modifications: lactam 2-7
Consider B2, for which the Ki in assay [2] turned out to be 110 nM.

B3: Ac-Arg-cyclo(Asp-Dap(betaPro)-D-Ph-Arg-Trp-Lys)-NH2 (peptide)
peptide: Ac-RD[Dap(betaPro)][dF]RWK-NH2
modifications: lactam 2-7
For B3, the Ki in assay [2] is 145 nM.

B4: Cyclopentylacetyl-Arg-cyclo(Asp-Dab-D-Phe-Arg-Trp-Lys)-NH2 (peptide)
peptide: {Cyclopentylacetyl′}-RD[Dab][dF]RWK-NH2
modifications: lactam 2-7
As for B4, the Ki in assay [3] amounted to 0.8 nM.

B5: Phenylacetyl-Arg-cyclo(Asp-Dab-D-Phe-Arg-Trp-Lys)-NH2 (peptide)
peptide: Phenylacetyl-RD[Dab][dF]RWK-NH2
modifications: lactam 2-7
With B5, the Ki in assay [3] is 2 nM.

B6: Ac-Arg-cyclo(hGlu-Dab-D-Phe-Arg-Trp-Dab)-NH2 (peptide)
peptide: RXXFRWX
modifications: N-acetyl; X2 = hGlu; X3 = Dab; D-Phe 4; X7 = Dab; side-chain lactam hGlu2-Dab7; C-terminal amide
Regarding B6, in assay [4], the EC50 (cAMP) is 0.06 nM and the intrinsic activity (cAMP; NDP-α-MSH = 100%) amounted to 98%. Moreover, the Ki in assay [5] is 2 nM.

B7: Cyclohexanoyl-Arg-cyclo(Asp-Dab-D-Phe-Arg-Trp-Lys)-NH2 (peptide)
peptide: Cyclohexanoyl-RD[Dab][dF]RWK-NH2
modifications: lactam 2-7
Consider B7, for which the Ki in assay [3] came out at 0.4 nM.

B8: Ac-Arg-cyclo(Asp-Sar-D-Phe-Arg-Trp-Lys)-NH2 (peptide)
peptide: Ac-RD[Sar][dF]RWK-NH2
modifications: lactam 2-7
With B8, in assay [3], the Ki is 15 nM.

B9: Ac-Arg-cyclo(Asp-Dap-D-Phe-Arg-Trp-Lys)-NH2 (peptide)
peptide: RDXFRWK
HELM: PEPTIDE1{[ac].R.D.[NC[C@H](N[*:1])C(=O)[*:2]].[dF].R.W.K.[am]}$PEPTIDE1,PEPTIDE1,3:R3-8:R3$$$V2.0
SMILES: CC(=O)N[C@@H](CCCNC(=N)N)C(=O)N[C@H]1CC(=O)NCCCC[C@@H](C(N)=O)NC(=O)[C@H](Cc2c[nH]c3ccccc23)NC(=O)[C@H](CCCNC(=N)N)NC(=O)[C@@H](Cc2ccccc2)NC(=O)[C@H](CN)NC1=O
Regarding B9, the inhibition constant Ki in assay [2] amounted to 80 nM.

B10: Cyclohexylacetyl-Arg-cyclo(Asp-Dab-D-Phe-Arg-Trp-Lys)-NH2 (peptide)
peptide: Cyclohexylacetyl-RD[Dab][dF]RWK-NH2
modifications: lactam 2-7
Regarding B10, the Ki in assay [3] is 1 nM.

B11: Ac-Arg-cyclo(Asp-Orn-D-Phe-Arg-Trp-Lys)-NH2 (peptide)
peptide: Ac-RD[Orn][dF]RWK-NH2
modifications: lactam 2-7
As for B11, the Ki in assay [2] was 7 nM.

B12: Ac-Arg-cyclo(Asp-Dab(Acetyl)-D-Phe-Arg-Trp-Lys)-NH2 (peptide)
peptide: RDXFRWK
HELM: PEPTIDE1{[ac].R.D.[Dab].[dF].R.W.K.[am]}|PEPTIDE2{[ac]}$PEPTIDE1,PEPTIDE2,4:R3-1:R2|PEPTIDE1,PEPTIDE1,3:R3-8:R3$$$V2.0
SMILES: CC(=O)NCC[C@@H]1NC(=O)[C@@H](NC(=O)[C@H](CCCNC(=N)N)NC(C)=O)CC(=O)NCCCC[C@@H](C(N)=O)NC(=O)[C@H](Cc2c[nH]c3ccccc23)NC(=O)[C@H](CCCNC(=N)N)NC(=O)[C@@H](Cc2ccccc2)NC1=O
With B12, the Ki was found to be 33 nM in assay [3] and 88 nM in assay [2].

B13: Ac-Arg-cyclo(Dab-Dab-D-Phe-Arg-Trp-hGlu)-OH (peptide)
peptide: RXXFRWX
modifications: N-acetyl; X2 = Dab; X3 = Dab; D-Phe 4; X7 = hGlu; side-chain lactam Dab2-hGlu7; C-terminal free acid (-OH)
On to B13, for which the Ki in assay [1] was determined as 35 nM.

B14: Ac-Arg-cyclo(Asp-Dab-D-Phe-Arg-Trp-Lys)-NH-cyclopropyl (peptide)
peptide: RDXFRWK
HELM: PEPTIDE1{[ac].R.D.[Dab].[dF].R.W.K.[C1CC1N[*:1]]}$PEPTIDE1,PEPTIDE1,3:R3-8:R3$$$V2.0
SMILES: CC(=O)N[C@@H](CCCNC(=N)N)C(=O)N[C@H]1CC(=O)NCCCC[C@@H](C(=O)NC2CC2)NC(=O)[C@H](Cc2c[nH]c3ccccc23)NC(=O)[C@H](CCCNC(=N)N)NC(=O)[C@@H](Cc2ccccc2)NC(=O)[C@H](CCN)NC1=O
In the case of B14, the Ki in assay [3] turned out to be 3 nM.

B15: Ac-Arg-cyclo(Asp-Orn(Acetyl)-D-Phe-Arg-Trp-Lys)-NH2 (peptide)
peptide: Ac-RD[Orn](Ac)[dF]RWK-NH2
modifications: lactam 2-7
For B15, in assay [3], the Ki turned out to be 573 nM.

B16: Ac-Arg-cyclo(Dab-Dab-D-Phe-Arg-Trp-hGlu)-NH2 (peptide)
peptide: RXXFRWX
modifications: N-acetyl; X2 = Dab; X3 = Dab; D-Phe 4; X7 = hGlu; side-chain lactam Dab2-hGlu7; C-terminal amide
On to B16, for which, in assay [4], the EC50 (cAMP) was 0.065 nM and the intrinsic activity (cAMP; NDP-α-MSH = 100%) worked out at 96%. The Ki in assay [5] was 4 nM.
